The values below are quoted from earlier work in paper PMC6551275.

The target of this data set is UBQLN2 UBA (Homo sapiens) (UniProt Q9UHD9).
UBQLN2 UBA (Homo sapiens), sequence (Q9UHD9 578-624): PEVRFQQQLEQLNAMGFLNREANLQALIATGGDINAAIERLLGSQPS

UBQLN2 UBL, sequence (Q9UHD9 33-107): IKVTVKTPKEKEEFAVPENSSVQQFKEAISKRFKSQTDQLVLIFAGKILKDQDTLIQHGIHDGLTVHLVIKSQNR

With UBQLN2 UBL (from UniProt Q9UHD9), the Kd (in general, a measure of binding affinity in units of concentration) was 175 µM.
